This is an account of results in paper PMC6547619 (2019).

B3: E. coli rBAG3 (Abcam) (natural protein)
chain: not shown

Targets include BAG3-H3L4; BAG3-H1L2; BAG3-H1L3; BAG3-H4L4; BAG3-H4L3; BAG3-H2L2; BAG3-H1L4; BAG3-H3L2; BAG3-H2L3; BAG3-H3L3.
Assay in all cases: SPR
In general terms: SPR reads the build-up and loss of mass on a sensor chip optically.

The test “E. coli rBAG3 (Abcam)” addresses B3.

As a reminder, the Kd is the constant that tells how readily two partners part at equilibrium. A higher Kd goes with lower affinity.

B1: BAG3-H4L2 (antibody, V domains shown)
VH: EVQLVQSGAEVKKPGATVKISCKVSGFNIKDTYMYWVQQAPGKGLEWMGGVDPANGNTRYDPKFQGRVTITADTSTDTAYMELSSLRSEDTAVYYCARDGAMDYWGQGTLVTVSS
VL: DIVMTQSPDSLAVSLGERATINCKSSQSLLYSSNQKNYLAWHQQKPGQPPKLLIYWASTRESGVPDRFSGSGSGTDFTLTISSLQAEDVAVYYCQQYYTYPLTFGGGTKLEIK
Consider B1, for which, in the test with E. coli rBAG3 (Abcam), binding was characterised by a dissociation constant (Kd) of 2.02 nM.

B2: BAG3-H2L4 (antibody, V domains shown)
VH: QVQLVQSGAEVKKPGASVKVSCKASGFNIKDTYMYWVRQAPGQGLEWMGGVDPANGNTRYDPKFQGRVTLTRDTSTSTVYMELSSLRSEDTAVYYCGRDGAMDYWGQGTLVTVSS
VL: DIVMTQSPDSLAVSLGERATMSCKSSQSLLYSSNQKNYLAWHQQKPGQPPKLLIYWASTRESGVPDRFSGSGSGTDFTLTISSLQAEDLAIYYCQQYYTYPLTFGAGTKLEIK
The molecule B2 had a Kd in the test with E. coli rBAG3 (Abcam) of 2.04 nM.
Turning to B3, the Kd with BAG3-H3L4 came to 1.7 nM; with BAG3-H1L2, 2.84 nM; in the test with BAG3-H1L3, 2.83 nM; in the test with BAG3-H4L4, 1.72 nM; in the test with BAG3-H4L3, 1.98 nM; with BAG3-H2L2 it was 2.63 nM. Further, the Kd stood at 2.34 nM with BAG3-H1L4, 1.78 nM with BAG3-H3L2, 1.98 nM with BAG3-H2L3 and 1.61 nM in the test with BAG3-H3L3.
